Laboratory results: paper PMC9974466 (Proceedings of the National Academy of Sciences of the …, 2023)
Entries after “also recorded” stand apart in the source; their conditions may differ. Like-named read-outs stand apart in the source and are kept apart here. Ends that are not written are not given here.

Experiments:
[1] = biological target: T1, human PTHR1 (Homo sapiens, UniProt Q03431); assay: PTH-stimulated cAMP formation in GP2.3 reporter cells (Glosensor); format: cell-based; conditions: GP2.3 cells; synthetic peptides; mean ± SEM, n = 3; maximum luminescence 20 to 23 min
T1 construct: expressed in transfected cells; host or cells: GP2.3 (HEK293-derived)
T1 sequence (Q03431 27-593): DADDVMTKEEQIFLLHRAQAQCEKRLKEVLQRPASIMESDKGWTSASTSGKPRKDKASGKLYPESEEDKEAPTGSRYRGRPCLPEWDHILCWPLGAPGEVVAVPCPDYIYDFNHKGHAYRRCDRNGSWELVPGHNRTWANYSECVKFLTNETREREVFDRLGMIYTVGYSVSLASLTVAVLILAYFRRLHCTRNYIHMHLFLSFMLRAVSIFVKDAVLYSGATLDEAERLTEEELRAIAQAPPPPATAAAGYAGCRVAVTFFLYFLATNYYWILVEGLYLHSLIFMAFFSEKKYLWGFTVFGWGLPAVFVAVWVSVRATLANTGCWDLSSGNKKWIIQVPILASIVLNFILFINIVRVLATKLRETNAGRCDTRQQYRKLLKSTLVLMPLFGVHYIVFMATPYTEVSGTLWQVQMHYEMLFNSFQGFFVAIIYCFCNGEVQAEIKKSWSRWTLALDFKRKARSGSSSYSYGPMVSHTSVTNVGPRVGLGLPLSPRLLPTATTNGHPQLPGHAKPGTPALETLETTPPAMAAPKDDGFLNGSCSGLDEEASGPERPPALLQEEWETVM
Protocol: (§1) SGS-72 cells, i.e., human osteosarcoma SaOS-2 cells stably expressing the Glosensor cAMP reporter, were maintained in modified McCoy’s 5A medium [15% FBS, 1% penicillin/streptomycin, and 1% nonessential amino acids, as described ([29])]. GP2.3 cells, i.e., HEK293 cells stably expressing the human PTHR1 and the Glosensor cAMP reporter, were maintained in DMEM (10% FBS, 1% penicillin/streptomycin), as described ([24]). Cells were seeded into 96‐well white plates (40,000 cells/100µL/well); 24 to 48 h after confluency, the wells were rinsed with 100 µL carbon dioxide-independent culture medium (CIDB; Life Technologies) containing 0.1% bovine serum albumin (BSA), which was then replaced with 90 µL of luciferin (0.5 mM in CIDB) for 15 min before adding 10 µL of increasing concentrations of PTH analogs diluted in CIDB or 10 µL of CIDB, and then measuring cAMP‐dependent luminescence at 2‐min intervals using a PerkinElmer Envision plate reader (PerkinElmer), as described ([24]). […] GP2.3 cells were also used for the evaluation of CM from transfected COS-7 cells; PTH(1-84) served as control.

[2] = biological target: T2, human PTHR1 (SGS-72 cells, SaOS-2 derived) (Homo sapiens, UniProt Q03431); assay: PTH-stimulated cAMP formation in SGS-72 reporter cells (Glosensor); format: cell-based; conditions: for Biological activity relative to corresponding PTH(1-34) analog (in words): compared with PTH(1-34) analogs
T2 construct: SGS-72 cells, i.e., human osteosarcoma SaOS-2 cells stably expressing the Glosensor cAMP reporter; endogenous in cells; host or cells: SGS-72 (human osteosarcoma SaOS-2-derived)
T2 sequence (Q03431 27-593): T1 sequence (Q03431 27-593)
Protocol: as §1
SGS-72 cells were used for assessing PTH-stimulated cAMP formation. 10 µL of increasing concentrations of [S1]PTH(−6 to +34) or [P1]PTH(−6 to +34) before and after incubation with furin were diluted in CIDB buffer.

[3] = tested on: anti-[P1]PTH(−6 to +3)^Biotin antibody; assay: Epitope characterization ELISA with anti-[P1]PTH(−6 to +3)^Biotin capture antibody; format: binding
Excerpt: For additional characterization of our anti-[P1]PTH(−6 to +3) antibody, we biotin-labeled this antibody for use as capture antibody (anti-[P1]PTH(−6 to +3)^Biotin antibody) in combination with the HRP-labeled detection antibody from the intact PTH assay (Immutopics) that is directed against PTH(13-34) (SI Appendix, Fig. S3).
(§2) pro[P1]PTH(−6 to +3) was conjugated to SulfoLink coupling gel via the C-terminal cysteine (PIERCE) for affinity purification of the rabbit antibodies, which were then HRP-labeled using EZ-Link Plus Activated Peroxidase Kit (Thermo Fisher Scientific), following the manufacturer’s protocol. The anti-pro[P1]PTH(−6 to +3) antibody was also conjugated to biotin using EZ-LinkTM Sulfo-NHS-LC-Biotinylation Kit (Thermo Fisher Scientific), following the manufacturer’s protocol, except using 40-fold instead of 20-fold excess of biotin. After biotin coupling, 15% of rabbit serum were added to the biotinylated antibody [anti-pro[P1]PTH(−6 to +3)^Biotin].
100 Defining the epitope of the antibody raised against [P1]PTH(-6 to +15) that was affinity purified with
101 immobilized [P1]PTH(-6 to +3).
102 The anti-[P1]PTH(-6 to +3) antibody was coupled to biotin (anti-[P1]PTH(-6 to +3)Biotin antibody) and
103 used as capture antibody in combination with the detection anti-PTH(13-34) antibody provided in
104 the intact PTH assay (Immutopics). Epitope of the affinity purified anti-[P1]PTH(-6 to +3)Biotin
105 antibody was partially defined by using [P1]PTH(-6 to +34) and [S1]PTH(-6 to +34), as well as
111 recognized by the anti-[P1]PTH(-6 to +3)Biotin antibody resides predominantly in the -6 to -4 region.
(1 picture or pasted object on this page, not shown here)

[4] = biological target: T3, furin (Homo sapiens, UniProt P09958); assay: Assessment of PTH analogs cleavage by furin (HPLC and MassSpec); format: biochemical; conditions: peptide 10 µg with furin 8U, HEPES buffer pH 7.4, RT, 60 min, final volume 30 µL; HPLC C18 4-76% ACN/0.05% TFA over 40 min and MassSpec
T3 construct: purchased New England Biolabs
T3 sequence (P09958 108-595 limits assumed): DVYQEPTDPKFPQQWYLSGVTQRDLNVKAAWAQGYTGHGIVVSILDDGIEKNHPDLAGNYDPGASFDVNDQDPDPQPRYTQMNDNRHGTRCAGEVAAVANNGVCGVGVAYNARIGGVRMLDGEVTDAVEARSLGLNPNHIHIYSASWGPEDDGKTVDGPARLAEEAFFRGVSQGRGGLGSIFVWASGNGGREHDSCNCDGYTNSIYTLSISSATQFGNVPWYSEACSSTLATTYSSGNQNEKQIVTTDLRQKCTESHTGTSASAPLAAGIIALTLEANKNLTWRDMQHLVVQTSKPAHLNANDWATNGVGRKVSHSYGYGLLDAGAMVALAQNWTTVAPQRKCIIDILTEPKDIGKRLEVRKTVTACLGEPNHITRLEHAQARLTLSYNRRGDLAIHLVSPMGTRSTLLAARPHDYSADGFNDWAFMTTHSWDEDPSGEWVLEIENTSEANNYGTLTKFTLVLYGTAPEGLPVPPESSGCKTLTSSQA
Protocol: [S1]PTH(−6 to +34) or [P1]PTH(−6 to +34) (10 µg/10 µL 10 mM acetic acid) was incubated with furin (8U/4 μL) (New England Biolabs) and furin buffer (50 mM HEPES (4-(2-hydroxyethyl)-1-piperazineethanesulfonic acid)–KOH (potassium hydroxide) (pH 7.4), 150 mM NaCl, 5 mM MgCl2, 16 mM imidazole, 2% glycerol, 0.15 mM EGTA, 500 μM ATP, 0.5% Triton-X100, 2 mM CaCl2, and 2 mM β-mercaptoethanol) (RT, 60 min; final volume 30 µL) (New England Biolabs), as recommended by the manufacturer, before adding EGTA (100 μM, 3 μL). In some experiments, 1 μL of the reaction buffer was replaced with the furin inhibitor Decanoyl-RVKR-CMK (Tocris Bioscience; 50 μM in water). To assess cleavage, 5 µL of furin-treated or untreated peptides (1.5 µg each) was loaded onto a C18 column (2.1 mm × 150 mm, Higgins Analytical, Inc.), and a gradient of 4 to 76% ACN/0.05% TFA over 40 min (200 µL/min) was applied. To determine the molecular weight, 10 µL of furin-treated or untreated peptides was loaded onto a C18 ZipTip (Millipore Corporation) that had been rinsed with 100% ACN/0.01% TFA (2 × 20 μL) followed by equilibration with H2O/0.01% TFA (5 × 20 μL). Peptide elution with 100% ACN/0.01% TFA was followed by speed vac and MassSpec analysis.

[5] = tested on: anti-pro[P1]PTH^HRP antibody; assay: pro[P1]PTH immunoassay with anti-pro[P1]PTH^HRP detection antibody; format: binding
Excerpt: To allow quantification of pro[P1]PTH in CM and in plasma of our patients with the homozygous P1 mutation, we replaced the detection antibody in an intact PTH assay (Immutopics) with a horseradish peroxidase (HRP)-labeled antibody raised against pro[P1]PTH(−6 to +15), which was affinity purified with pro[P1]PTH(−6 to +3) (anti-pro[P1]PTH^HRP antibody) (Materials and Methods).
as §2, with “+3)^Biotin]. […]” for “+3)^Biotin].”

[6] = anti-[P1]PTH(−6 to +3)^Biotin capture, anti-PTH(13-34) HRP detection, n = 2 to 4

CC[C@H](C)[C@H](NC(=O)[C@H](CCC(=O)O)NC(=O)[C@H](CO)NC(=O)[C@@H](NC(=O)[C@@H]1CCCN1)C(C)C)C(=O)N[C@@H](CCC(N)=O)C(=O)N[C@@H](CC(C)C)C(=O)N[C@@H](CCSC)C(=O)N[C@@H](Cc1c[nH]cn1)C(=O)N[C@@H](CC(N)=O)C(=O)N[C@@H](CC(C)C)C(=O)NCC(=O)N[C@@H](CCCCN)C(=O)N[C@@H](Cc1c[nH]cn1)C(=O)N[C@@H](CC(C)C)C(=O)N[C@@H](CC(N)=O)C(=O)N[C@@H](CO)C(=O)N[C@@H](CCSC)C(=O)N[C@@H](CCC(=O)O)C(=O)N[C@@H](CCCNC(=N)N)C(=O)N[C@H](C(=O)N[C@@H](CCC(=O)O)C(=O)N[C@@H](Cc1c[nH]c2ccccc12)C(=O)N[C@@H](CC(C)C)C(=O)N[C@@H](CCCNC(=N)N)C(=O)N[C@@H](CCCCN)C(=O)N[C@@H](CCCCN)C(=O)N[C@@H](CC(C)C)C(=O)N[C@@H](CCC(N)=O)C(=O)N[C@@H](CC(=O)O)C(=O)N[C@H](C(=O)N[C@@H](Cc1c[nH]cn1)C(=O)N[C@@H](CC(N)=O)C(=O)N[C@@H](Cc1ccccc1)C(N)=O)C(C)C)C(C)C [[P1]PTH(1-34)]
EC50 [1]: 3.2 ± 0.9 nM | EC50 ([2]; synthetic peptides, mean ± SEM, n = 3 (Fig. 2B), read-out: EC50 for cAMP formation): 0.5 ± 0.3 nM

PTH(2-34): synthetic amino-terminally shortened peptide (VSEIQLMHNLGKHLNSMERVEWLRKKLQDVHNF-NH2; UniProt P01270 33-65, looked up, fragment)
Detection / cross-reactivity (in words) [3, 6]: only minimal cross-reactivity at very high concentrations

PTH(3-34): synthetic amino-terminally shortened peptide (SEIQLMHNLGKHLNSMERVEWLRKKLQDVHNF-NH2; UniProt P01270 34-65, looked up, fragment)
Detection / cross-reactivity (in words) [3, 6]: not detected at all

PTH(4-34): synthetic amino-terminally shortened peptide (EIQLMHNLGKHLNSMERVEWLRKKLQDVHNF-NH2; UniProt P01270 35-65, looked up, fragment)
Detection / cross-reactivity (in words) [3, 6]: not detected at all

[S1]PTH(−6 to +34): synthetic proPTH(−6 to +34) with serine at position 1
Biological activity relative to corresponding PTH(1-34) analog (in words) [2]: more than an order of magnitude lower | Biological activity relative to corresponding PTH(1-34) analog (in words) ([2]; listed as pro[S1]PTH(−6 to +34)): much less bioactivity than the corresponding PTH(1-34) analogs | Maximum cAMP formation relative to [S1]PTH(1-34) ([2]; furin-treated, maximum at 10^−7 M): 115.7 ± 8.6% | EC50 ([2]; no furin, [S1] series (Fig. 3A), n = 2, top constrained to maximum cAMP by PTH(1-34) at 10^−7 M, read-out: EC50 for cAMP formation, without furin (curve top constrained)): 16.4 ± 4.7 nM | EC50 ([2]; with Decanoyl-RVKR-CMK (3 μL of 50 μM), Fig. 3A, n = 2, top constrained to maximum cAMP by PTH(1-34) at 10^−7 M, read-out: Estimated EC50 for cAMP formation, with furin inhibitor): 272 ± 166 nM | Cleavage by furin [4]: after incubation with furin, most of the peptide eluted at fraction #29 (55% ACN) | Detection / cross-reactivity (in words) [3, 6]: detected equivalently | Detection / cross-reactivity (in words) ([3]; anti-[P1]PTH(−6 to +3)^Biotin capture, anti-PTH(13-34) HRP detection, n = 2 to 4, listed as [S1]PTH(-6 to +34)): detected equally well | Reduction of detection after incubation with furin ([3]; furin-treated): at least 10 fold

B1: pro[P1]PTH: mutant pro-hormone secreted by COS-7 cells expressing prepro[P1]PTH(1-84) and present in patients' plasma (protein, UniProt P01270 26-115, looked up, variant S1P)
pro-form: KSVKKRPVSEIQLMHNLGKHLNSMERVEWLRKKLQDVHNFVALGAPLAPRDAGSQRPRKKEDNVLVESHEKSLGEADKADVNVLTKAKSQ
modifications: pro-form
notes: mutant pro-hormone secreted by COS-7 cells expressing prepro[P1]PTH(1-84) and present in patients' plasma
Half maximum binding of the anti-pro[P1]PTH^HRP detection antibody ([5]; capture anti-PTH(39-84), HRP detection, CM standard): 1,032 pg/mL | Half-maximal binding [3, 6]: 1,330 pg/mL

B2: SVSEIQ … LMHNLGKHLNSMERVEWLRKKLQDVHNFVALGAPLAPRDAGSQRPRKKEDNVLVESHEKSLGEADKADVNVLTKAKSQ (protein, UniProt P01270 32-115, looked up)
Parathyroid hormone: SVSEIQLMHNLGKHLNSMERVEWLRKKLQDVHNFVALGAPLAPRDAGSQRPRKKEDNVLVESHEKSLGEADKADVNVLTKAKSQ
modifications: Parathyroid hormone
notes: Recombinant PTH(1-84) was from Chugai Pharmaceutical Co., Ltd
Detection / cross-reactivity in pro[P1]PTH assay ([5]; vs. pro[P1]PTH, up to very high concentrations): barely detected; also recorded: minimal even at very high concentrations; also recorded: extremely low
